Reference: the supplement of paper PMC10126150
± gives the standard deviation of the averaged measurements.

Tested on: ATP
Test: switch fluorescence ratio, 500 uM ATP over buffer (Cy3 cluster intensity, sum of 5 cycles each) (fold (ratio)); higher = stronger signal-on switching upon ATP binding; sequences stand for … in TCGTCGGCAGCGTCAGATGTGTATAAGAGACAGTTTTTTTTTTTTTTTTTTTTTTTTT…TC
Conditions: aptamer strand: ATP DNA aptamer (quencher-CACCTGGGGGAGTATTGCGGAGGAAGG + anchor), 100 nM annealed; ATP concentration: 500 uM
Summary of the method: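 The fluorescence ratio divides summed target-cycle Cy3 intensity by summed buffer-cycle Cy3 intensity for each cluster and is averaged per switch-domain sequence. Cy3-labelled switching-strand clusters on a modified Illumina MiSeq flow-cell were annealed to 100 nM quencher-labelled ATP aptamer, then imaged in selection buffer and again after 15 min with 500 uM ATP at 22 °C. Five such cycles were run, with NaOH stripping and re-annealing between them, and clusters outside 100-1000 RFU were excluded.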
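Further: ATP exposure 15 min at 22 °C before imaging.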

Sequence | switch fluorescence ratio
TTTGGGAATT | 1.03 ± 0.035
TTTGGGACAG | 0.981 ± 0.031
TTTGGGAGGC | 1.01 ± 0.034
TTTGGGATT | 0.999 ± 0.036
TTTGGGCATA | 1.16 ± 0.19
TTTGGGCGCC | 1 ± 0.018
TTTGGGCGCT | 1.04 ± 0.048
TTTGGGCTGT | 1.02 ± 0.021
TTTGGGGAGA | 1 ± 0.041
TTTGGGGAGT | 1 ± 0.088
TTTGGGGGCC | 1.009 ± 0.0061
TTTGGGTAAG | 1 ± 0.024
TTTGGGTCAA | 1.012 ± 0.0074
TTTGGGTGTT | 1.02 ± 0.046
TTTGGGTTAA | 1.13 ± 0.29
TTTGGTAGAA | 0.996 ± 0.025
TTTGGTCCGG | 1.01 ± 0.029
TTTGGTCCTT | 1.029 ± 0.0088
TTTGGTGCCC | 1.03 ± 0.029
TTTGGTGCTT | 0.974 ± 0.045
TTTGGTGTTT | 1.01 ± 0.035
TTTGGTTATG | 0.982 ± 0.017
TTTGGTTCTT | 1.02 ± 0.033
TTTGGTTGGG | 1.03 ± 0.098
TTTGGTTTTC | 1.02 ± 0.033

Sequence | switch fluorescence ratio
TTTGTAAAGG | 0.999 ± 0.013
TTTGTAACCT | 1.74 ± 0.035
TTTGTAGAAC | 1.02 ± 0.036
TTTGTAGAGT | 1.01 ± 0.034
TTTGTAGGAT | 1.04 ± 0.014
TTTGTAGTGT | 0.999 ± 0.026
TTTGTATAGG | 0.98 ± 0.035
TTTGTATGCA | 1.04 ± 0.057
TTTGTCGATA | 1.05 ± 0.025
TTTGTCGTAT | 0.996 ± 0.014
TTTGTGATAA | 0.969 ± 0.057
TTTGTGCGCA | 1.07 ± 0.08
TTTGTGCTTT | 1.01 ± 0.02
TTTGTGGGAT | 0.998 ± 0.043
TTTGTGGTTC | 1 ± 0.039
TTTGTGTATT | 0.97768 ± 0.00065
TTTGTTAACG | 0.99 ± 0.013
TTTGTTACGG | 0.978 ± 0.046
TTTGTTCACA | 1.06 ± 0.043
TTTGTTCATC | 0.97 ± 0.024
TTTGTTCGTG | 0.96 ± 0.028
TTTGTTGGGC | 0.981 ± 0.028
TTTGTTTAAT | 1.002 ± 0.0012
TTTGTTTAGG | 1.01 ± 0.04
TTTGTTTGCG | 1.03 ± 0.032

Sequence | switch fluorescence ratio
TTTGTTTGGT | 0.985 ± 0.036
TTTTAAACTG | 1.1 ± 0.066
TTTTAAAGAG | 0.97 ± 0.024
TTTTAACAAT | 1.021 ± 0.0098
TTTTAACCCT | 0.998 ± 0.013
TTTTAACGCT | 1.01 ± 0.039
TTTTAACTGG | 0.988 ± 0.034
TTTTAAGAT | 1.02 ± 0.029
TTTTAAGCTG | 1.05 ± 0.024
TTTTAAGTTG | 1.01 ± 0.045
TTTTAATCGT | 0.985 ± 0.063
TTTTACAGAT | 0.975 ± 0.017
TTTTACAGTT | 1.02 ± 0.023
TTTTACCTTT | 1 ± 0.032
TTTTACGAGT | 1.06 ± 0.16
TTTTACGCCT | 1.02 ± 0.012
TTTTACTAGA | 1.032 ± 0.0059
TTTTACTGCT | 1.15 ± 0.18
TTTTACTTGT | 1.025 ± 0.0037
TTTTAGAATG | 1 ± 0.061
TTTTAGGAAG | 0.9937 ± 0.0097
TTTTAGGGAG | 0.992 ± 0.03
TTTTAGGGCA | 1 ± 0.018
TTTTAGGGCC | 0.999 ± 0.05
TTTTAGGTCG | 0.987 ± 0.013

Sequence | switch fluorescence ratio
TTTTAGTCGG | 0.9883 ± 0.0092
TTTTAGTGGC | 1.02 ± 0.029
TTTTAGTGGT | 0.992 ± 0.014
TTTTAGTGTC | 0.998 ± 0.072
TTTTAGTTTA | 1.01 ± 0.031
TTTTAGTTTC | 1.015 ± 0.0022
TTTTATAAGA | 1.05 ± 0.075
TTTTATAAGT | 1.03 ± 0.021
TTTTATAGGA | 0.976 ± 0.006
TTTTATATAA | 1.02 ± 0.039
TTTTATGCTA | 1 ± 0.054
TTTTATGGGG | 0.968 ± 0.031
TTTTATGTTT | 1 ± 0.019
TTTTATTGCT | 0.991 ± 0.036
TTTTATTGGA | 1 ± 0.03
TTTTATTGGG | 0.975 ± 0.031
TTTTATTTCA | 0.991 ± 0.021
TTTTCAAAAT | 1.08 ± 0.13
TTTTCAATGT | 1.04 ± 0.048
TTTTCACCAA | 1.03 ± 0.025
TTTTCAGGGG | 1.03 ± 0.049
TTTTCATAAG | 1 ± 0.011
TTTTCATCTG | 1.03 ± 0.098
TTTTCCAAGA | 1.09 ± 0.1
TTTTCCCGCA | 2.02 ± 0.26

Sequence | switch fluorescence ratio
TTTTCCGCGG | 1.062 ± 0.0077
TTTTCCTGAC | 1.64 ± 0.25
TTTTCCTGGG | 1.03 ± 0.063
TTTTCGCATT | 1.23 ± 0.051
TTTTCGGAGT | 1.01 ± 0.037
TTTTCGGGGT | 0.986 ± 0.025
TTTTCGGGTG | 1.05 ± 0.024
TTTTCGTATT | 0.988 ± 0.012
TTTTCTCTTT | 1.01 ± 0.035
TTTTCTTCTC | 1.03 ± 0.028
TTTTGAAACG | 0.995 ± 0.025
TTTTGAACGT | 1.02 ± 0.043
TTTTGAATTT | 0.996 ± 0.032
TTTTGACTTG | 0.948 ± 0.0044
TTTTGACTTT | 0.998 ± 0.023
TTTTGAGAAA | 0.99 ± 0.028
TTTTGAGACG | 1.09 ± 0.011
TTTTGAGGCA | 1.02 ± 0.027
TTTTGATAAC | 0.97 ± 0.036
TTTTGATGCG | 0.982 ± 0.031
TTTTGATGTT | 0.988 ± 0.031
TTTTGATTGC | 1.03 ± 0.037
TTTTGCAGG | 0.991 ± 0.05
TTTTGCCCCC | 1.12 ± 0.14
TTTTGCTGTG | 1.01 ± 0.025

Sequence | switch fluorescence ratio
TTTTGCTTTC | 1.14 ± 0.1
TTTTGGAAAC | 1.11 ± 0.17
TTTTGGACCC | 1.01 ± 0.035
TTTTGGAGAG | 1.01 ± 0.016
TTTTGGATAT | 1.28 ± 0.42
TTTTGGCACG | 0.988 ± 0.0014
TTTTGGCGAC | 0.976 ± 0.027
TTTTGGCGTC | 0.994 ± 0.023
TTTTGGCTTA | 0.9945 ± 0.007
TTTTGGGAAC | 1.02 ± 0.037
TTTTGGGACT | 1.03 ± 0.019
TTTTGGGAGG | 1 ± 0.054
TTTTGGGGTT | 0.997 ± 0.043
TTTTGGGTCA | 1.02 ± 0.018
TTTTGGTACC | 1.02 ± 0.015
TTTTGGTCCT | 1.07 ± 0.1
TTTTGGTGGA | 0.988 ± 0.014
TTTTGGTTCC | 1.01 ± 0.016
TTTTGGTTCG | 0.987 ± 0.032
TTTTGGTTG | 0.947 ± 0.045
TTTTGTAACG | 1 ± 0.034
TTTTGTAAGA | 1.03 ± 0.013
TTTTGTATTT | 0.988 ± 0.035
TTTTGTCATT | 1 ± 0.04
TTTTGTCCAT | 0.992 ± 0.015

Sequence | switch fluorescence ratio
TTTTGTCGTG | 0.95 ± 0.033
TTTTGTCTGC | 0.98876 ± 0.00074
TTTTGTGAAG | 0.963 ± 0.035
TTTTGTGAGA | 1.026 ± 0.0075
TTTTGTGAGT | 1.01 ± 0.04
TTTTGTGCTG | 0.984 ± 0.052
TTTTGTGCTT | 1.04 ± 0.074
TTTTGTGGCG | 1.04 ± 0.033
TTTTGTGGCT | 0.98 ± 0.02
TTTTGTGGTC | 1.02 ± 0.017
TTTTGTGTGC | 1.02 ± 0.022
TTTTGTTCTT | 0.984 ± 0.012
TTTTGTTTGA | 0.995 ± 0.01
TTTTTAAGAC | 1.08 ± 0.086
TTTTTAATCG | 1.01 ± 0.032
TTTTTAATCT | 0.9902 ± 0.0083
TTTTTAATGA | 1.02 ± 0.052
TTTTTACAAG | 1.21 ± 0.3
TTTTTACTAT | 1.002 ± 0.0057
TTTTTAGAAA | 0.971 ± 0.011
TTTTTAGCCA | 1.05 ± 0.024
TTTTTAGCCG | 1.04 ± 0.075
TTTTTAGCGA | 1.09 ± 0.058
TTTTTAGCTT | 1.04 ± 0.028
TTTTTAGGGC | 1.02 ± 0.059

Sequence | switch fluorescence ratio
TTTTTAGTGC | 1 ± 0.044
TTTTTAGTTG | 1.12 ± 0.41
TTTTTATAGC | 1.01 ± 0.044
TTTTTATAT | 0.983 ± 0.031
TTTTTATATT | 1.21 ± 0.44
TTTTTATCA | 0.9798 ± 0.0082
TTTTTATCAG | 0.977 ± 0.038
TTTTTATGGA | 1.03 ± 0.027
TTTTTATGGG | 1.03 ± 0.077
TTTTTATTAA | 0.989 ± 0.033
TTTTTATTG | 1.02 ± 0.018
TTTTTCAGCC | 1.01 ± 0.046
TTTTTCCCCT | 0.992 ± 0.023
TTTTTCCGGC | 1.063 ± 0.0063
TTTTTCGACG | 1.1 ± 0.21
TTTTTCGTAT | 1.04 ± 0.044
TTTTTCTAAC | 0.996 ± 0.016
TTTTTCTATA | 0.994 ± 0.066
TTTTTCTATG | 0.983 ± 0.05
TTTTTCTCTT | 0.996 ± 0.021
TTTTTCTGGA | 0.993 ± 0.021
TTTTTCTTAT | 1 ± 0.041
TTTTTGAACT | 1.01 ± 0.037
TTTTTGAAGA | 0.986 ± 0.046
TTTTTGAGGG | 1.01 ± 0.04
